This note sets out measurements from article PMC3308961, “Chemical Mechanism of UDP-Galactopyranose Mutase from Trypanosoma cruzi: A Potential Drug Target against Chagas' Disease” (PLoS ONE, 2012).

Series [1] concerns the target T1, TcUGM (Trypanosoma cruzi, UniProt Q4E1W2).
T1 construct: gene Tc00.1047053507993.160
Nature of the series: UV-visible spectrum of purified enzyme; HPLC of released flavin. Type of series: binding. As to conditions: noncovalently bound, co-purified.

Series [2] deals with O=c1ccn([C@@H]2O[C@H](COP(=O)(O)OP(=O)(O)O[C@H]3O[C@@H]([C@H](O)CO)[C@H](O)[C@H]3O)[C@@H](O)[C@H]2O)c(=O)[nH]1. Kind of series: purified protein. As to conditions: reduced with 20 mM dithionite, 25 mM Hepes, 125 mM NaCl pH 7.5, 37°C.
The test system of series [3] is NC(=O)C1=CN([C@@H]2O[C@H](COP(=O)(O)OP(=O)(O)OC[C@H]3O[C@@H](n4cnc5c(N)ncnc54)[C@H](O)[C@@H]3O)[C@@H](O)[C@H]2O)C=CC1. Kind of series: purified protein. To be noted: oxidase activity (kox), air-saturated 50 mM phosphate pH 7.0, room temperature, no UDP-Galp.
For series [4], the system named is NC(=O)C1=CN([C@@H]2O[C@H](COP(=O)(O)OP(=O)(O)OC[C@H]3O[C@@H](n4cnc5c(N)ncnc54)[C@H](OP(=O)(O)O)[C@@H]3O)[C@@H](O)[C@H]2O)C=CC1. Nature of the series: purified protein. To be noted: oxidase activity (kox), air-saturated 50 mM phosphate pH 7.0, room temperature, no UDP-Galp.

What is called Km is the concentration of substrate that gives half-maximal velocity. One may read the kcat as the number of substrate molecules converted per active site and unit of time at saturation. Broadly, the kcat/Km is the second-order rate constant that governs catalysis at low substrate concentration.

T1 sequence (Q4E1W2 entry or part of it): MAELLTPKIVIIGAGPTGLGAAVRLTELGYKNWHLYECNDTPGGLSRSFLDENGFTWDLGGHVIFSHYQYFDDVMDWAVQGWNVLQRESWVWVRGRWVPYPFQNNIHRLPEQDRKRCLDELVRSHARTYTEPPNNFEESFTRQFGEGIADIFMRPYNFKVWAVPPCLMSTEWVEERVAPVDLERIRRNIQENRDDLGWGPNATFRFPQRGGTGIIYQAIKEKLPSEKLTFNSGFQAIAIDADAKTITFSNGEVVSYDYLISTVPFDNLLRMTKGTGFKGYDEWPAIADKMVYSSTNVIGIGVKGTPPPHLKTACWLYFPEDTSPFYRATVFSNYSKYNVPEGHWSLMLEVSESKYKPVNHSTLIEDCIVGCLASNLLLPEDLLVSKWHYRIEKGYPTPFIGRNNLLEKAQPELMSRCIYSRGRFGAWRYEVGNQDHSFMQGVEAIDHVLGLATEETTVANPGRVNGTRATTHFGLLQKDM

As to `Cc1cc2nc3c(=O)[nH]c(=O)nc-3n(C[C@H](O)[C@H](O)[C@H](O)COP(=O)(O)OP(=O)(O)OC[C@H]3O[C@@H](n4cnc5c(N)ncnc54)[C@H](O)[C@@H]3O)c2cc1C` [FAD], the “UV-visible spectrum of purified enzyme; HPLC of released flavin” value in series [1] was “Recombinant TcUGM contained noncovalently bound flavin cofactor”.
On to “TcUGM (Trypanosoma cruzi strain CL Brener)”, for which, in series [2], the Km was determined as 140 ± 10 µM, the kcat amounted to 13.4 ± 0.3 s⁻¹ and the kcat/Km is 93000 ± 6000 M⁻¹ s⁻¹. Further, in series [3], the Km stood at 90 ± 20 µM and the kcat turned out to be 0.015 ± 0.002 s⁻¹. For the same compound, in series [4], the Km stood at 15 ± 2 µM and the kcat was found to be 0.030 ± 0.002 s⁻¹.
